Experimental findings from patent US20060046250A1 (SEOUL NATIONAL UNIVERSITY INDUSTRY FOUNDATION, published 2006) are described below.

In the assay the target is T1, GST-AIM3 fusion protein (human, UniProt O43324 1-174).
T1 construct: Immobilised on glutathione-sepharose beads; also called GST-fused AIM3; GST-fused AIM3 protein; not shown: glutathione S-transferase (GST) fusion partner from the Pharmacia system; The vector, the linker and the order of the fu
T1 sequence: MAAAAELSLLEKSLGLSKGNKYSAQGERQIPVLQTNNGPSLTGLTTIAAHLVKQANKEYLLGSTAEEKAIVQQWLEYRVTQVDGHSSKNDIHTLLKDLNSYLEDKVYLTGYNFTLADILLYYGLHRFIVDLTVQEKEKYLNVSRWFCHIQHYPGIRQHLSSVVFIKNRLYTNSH
In words: GST pull-down of in vitro translated, radiolabelled fragment, autoradiography. The text has this: First, AIM3 was expressed as GST fusion protein and purified according to the manufacturer's protocol (Pharmacia). Meanwhile, since it was difficult to synthesize the whole ATM due to its large size, the present inventors tested the interaction between the functional domain of ATM and AIM3. For this purpose, a fragment consisting of 612 amino acids, including the FAT domain of an ATM structure, was amplified by PCR with primers shown in SEQ ID NO: 12 and SEQ ID NO: 13. Also, a fragment (control group) consisting of 145 amino acids, including the C-terminal domain, was amplified by PCR with primers shown in SEQ ID NO: 14 and SEQ ID NO: 15. Then, the amplified PCR products were subdloned into pcDNA3.1 (Invitrogen), a vector suitable for in vitro transcription and […]. At this time, the protein was synthesized by in vitro translation in the presence of radioactive methionine. 10 μl of the synthesized TNT product was incubated with the GST- or GST-AIM3 fusion protein-immobilized glutathion-sepharose beads for 5 minutes. Then, the beads were washed six times with a binding buffer (PBS containing 0.2% sarcosine and 0.2% Triton X100), and dissolved in 10% SDS-PAGE. The binding of the GST-fused AIM3 to each domain was determined by autoradiography.

B1: ATM fragment consisting of 145 amino acids, including the C-terminal domain (other, UniProt Q13315 2912-3056, looked up)
chain: RDIVDGMGITGVEGVFRRCCEKTMEVMRNSQETLLTIVEVLLYDPLFDWTMNPLKALYLQQRPEDETELHPTLNADDQECKRNLSDIDQSFNKVAERVLMRLQEKLKGVEEGTVLSVGGQVNLLIQQAIDPKNLSRLFPGWKAWV
modifications: radioactive methionine (in vitro translated)
notes: domain: C-terminal domain; Made by in vitro transcription and translation from pcDNA3.1; Its limits are set only by the PCR primers; also called C-terminal domain of ATM; control group fragment
With B1, the binding result is reported as “no binding”.
